Data taken from paper PMC10144430 (Viruses, 2023).

How the values were obtained:
[1] = target: T1, gDL268N_(306t), soluble gD L268N truncated at residue 306 ( (herpes simplex virus; …, UniProt Q69467 26-331, L268N); experiment: SPR; Biacore 3000, room temperature, HBS-EP; gD captured via Mab 1D3 on a CM5 chip; soluble nectin-1 injected 300 s at 5 uL/min (also pre-mixed with 1 mM TCEP, binding unaffected); conditions: both partners purified
T1 construct: source: 293T cells, transfected, purified from supernatant (Ni-NTA resin)

[2] = target: T2, cys2_(306t), soluble disulfide-bonded gD mutant (K190C-A277C) truncated at position 306 ( (herpes simplex virus)); …, UniProt Q69467 26-331, K190C | A277C, engineered disulfide bond Cys190-Cys277 (reduced where TCEP was added)); experiment: as above; conditions: both partners purified
T2 construct: also called gD cys2; cy2; source: 293T cells, transfected, purified from supernatant (nickel column); not shown: His6, C-terminal, kept

B1: soluble nectin-1 (receptor)
chain: QVVQVNDSMYGFIGTDVVLHCSFANPLPSVKITQVTWQKSTNGSKQNVAIYNPSMGVSVLAPYRERVEFLRPSFTDGTIRLSRLELEDEGVYICEFATFPTGNRESQLNLTVMAKPTNWIEGTQAVLRAKKGQDDKVLVATCTSANGKPPSVVSWETRLKGEAEYQEIRNPNGTVTVISRYRLVPSREAHQQSLACIVNYHMDRFKESLTLNVQYEPEVTIEGFDGNWYLQRMDVKLTCKADANPPATEYHWTTLNGSLPKGVEAQNRTLFFKGPINYSLAGTYICEATNPIGTRSGQVEVNITEFPYTPSPPEHGRRAGPVPTA
notes: source: baculovirus-infected insect cells (Sf9), purified
B1 was tested, and the “nectin-1 binding, % of wt” value [1] was ~50 % of wt and the “nectin-1 binding, % of wt” value [2] was ~40 % of wt.
